Data: the supplement of paper PMC7125110
± gives the standard error. Fewer inactive variants are shown than the library holds.

B1: glmS ribozyme (parent)
chain: AUAAAAGCGCCAGAACUACAGAAAUGUAGUUGACGAGGAGGAGGUUUAUCGAAUUUUCGGCGGAUGCCUCCAAA

Assays:
Settings in all cases: with glucosamine-6-phosphate
glucosamine-6-phosphate [1] = variants of: B1; test: self-cleavage kobs at 160 uM GlcN6P; higher = faster cleavage; RNA array
Outline: (§1)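 Tracking of barcoded ribozyme variants used a hybridised Cy3 probe at 37 °C, after in situ transcription by E. coli RNA polymerase on sequenced MiSeq chips. The flowed solution held 40 μM to 10 mM glucosamine-6-phosphate in HEPES/KCl/Mg(OAc)2 buffer, and imaging ran over ~14 h. kobs was taken from exponential decay fits of normalised per-tile medians, and kcat and KM from weighted Michaelis–Menten fits.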

glucosamine-6-phosphate [2] = variants of: B1; test: self-cleavage kobs at 640 uM GlcN6P; higher = faster cleavage; RNA array
Outline: as §1

glucosamine-6-phosphate [3] = variants of: B1; test: self-cleavage kobs at 2500 uM GlcN6P; higher = faster cleavage; RNA array
Outline: as §1

glucosamine-6-phosphate [4] = variants of: B1; test: self-cleavage kobs at 10000 uM GlcN6P; higher = faster cleavage; RNA array
Outline: as §1

| Variant | self-cleavage kobs at 160 uM GlcN6P (glucosamine-6-phosphate [1]) | self-cleavage kobs at 640 uM GlcN6P (glucosamine-6-phosphate [2]) | self-cleavage kobs at 2500 uM GlcN6P (glucosamine-6-phosphate [3]) | self-cleavage kobs at 10000 uM GlcN6P (glucosamine-6-phosphate [4]) |
| --- | --- | --- | --- | --- |
| AUAAAAGCGCCAGAACUACAGAAAUGUAGUUGACGAGGCGGAGGUUUAUGGAAUUUUCGGCGGAUGCCUCCAAA | < 1e-05 s⁻¹ | < 1e-05 s⁻¹ |  |  |
| AUAAAAGCGCCAGAACUACAGAAAUGUAGUUGACGAGUAGGAGGUUUAUCGAAUUUUCGUCGGAUGCCUCCAAA | < 1e-05 s⁻¹ | < 1e-05 s⁻¹ |  |  |
| AUAAAAGCGCCAGAACUACAGAAAUGUAGUUGACGAGUAGGAGUUUUAUAGAAUUUUCGGCGGUUGCCUCCAAA | < 1e-05 s⁻¹ |  |  |  |
| AUAAAAGCGCCAGAACUACAGAAAUGUAGUUGACGAGGCGGAGGUUUAUCGAAUUUUCGGCGGAUGCCACCAAA | < 1e-05 s⁻¹ | < 1e-05 s⁻¹ |  |  |
| AUAAAAGCGCCAGAACUACAGAAAUGUAGUUGACGAGGCGGAGGUUUAUCAAAUUUUCGGAGGAUGCCUCCAAA | < 1e-05 s⁻¹ |  | < 1e-05 s⁻¹ |  |
| AUAAAAGCGCCAGAACUACAGAAAUGUAGUUGACGAGGCGGAGGUUUAUCGAAUUUUCGGCGGAAGCCUCGAAA | < 1e-05 s⁻¹ | < 1e-05 s⁻¹ | < 1e-05 s⁻¹ |  |
| AUAAAAGCGCCAGAACUACAGAAAUGUAGUUGACGAGGGGGAGGUUUAUCGAAUUUUCGGCUGAUGCCUCCAAA | < 1e-05 s⁻¹ | < 1e-05 s⁻¹ | < 1e-05 s⁻¹ |  |
| AUAAAAGCGCCAGAACUACAGAAAUGUAGUUGACGAGGCGGACGUUUAUCGAAUUUUCGGCGGAUGCCUCCAAA | < 1e-05 s⁻¹ | < 1e-05 s⁻¹ |  | < 1e-05 s⁻¹ |
| AUAAAAGCGCCAGAACUACAGAAAUGUAGUUGACGAGGCGGAGGUUUAUCGAAUUUUCUGAGGAUGCCUCCAAA | < 1e-05 s⁻¹ |  |  |  |
| AUAAAAGCGCCAGAACUACAGAAAUGUAGUUGACGAGGCGGAGGUUUAUCGAAUUUUCGGCGCAUGCCUCCAAA | < 1e-05 s⁻¹ | < 1e-05 s⁻¹ | < 1e-05 s⁻¹ | < 1e-05 s⁻¹ |
| AUAAAAGCGCCAGAACUACAGAAAUGUAGUUGACGAGGCGGAGGUUUAUCGAAGUUUCGGCGGAUGCCUCCAAA | 0.000221 ± 9.6e-05 s⁻¹ | 0.00106 ± 0.00043 s⁻¹ |  | 0.005 ± 0.0012 s⁻¹ |
| AUAAAAGCGCCAGAACUACAGAAAUGUAGUUGACGAGUACCAGGUUUAUCGAAUUUUCGGCGGAUGCCUCCAAA | < 1e-05 s⁻¹ | < 1e-05 s⁻¹ | < 1e-05 s⁻¹ |  |
| AUAAAAGCGCCAGAACUACAGAAAUGUAGUUGACGAGGCGGAGGUUAAUAGAAUUCUCGGCGGAUGCCUCCAAA | < 1e-05 s⁻¹ |  | < 1e-05 s⁻¹ |  |
| AUAAAAGCGCCAGAACUACAGAAAUGUAGUUGACGAGGCGGACGUUUAUCGAAUUUUCGGCGGAUGUCUCCAAA | < 1e-05 s⁻¹ |  | < 1e-05 s⁻¹ |  |
| AUAAAAGCGCCAGAACUACAGAAAUGUAGUUGACGAGGCGGAGGUUUAUAGUAUUUUCGGCGGAUGCCUCCAAA | < 1e-05 s⁻¹ | < 1e-05 s⁻¹ |  |  |
| AUAAAAGCGCCAGAACUACAGAAAUGUAGUUGACGAGUAGGAGGUUUAUCGAAUUUUCAGCGGAUGCCUCCAAA | < 1e-05 s⁻¹ |  |  |  |
| AUAAAAGCGCCAGAACUACAGAAAUGUAGUUGACGAGGGGGAAGUUUUUCCAAUUUUCGGCGGAUGCCUCCAAA | < 1e-05 s⁻¹ | < 1e-05 s⁻¹ | < 1e-05 s⁻¹ |  |
